Assay results reported in article PMC3448639.

Assay: 6% PFO-PAGE immunoblot
Details: glycan lost; control: wild type

B1: SR-BI (scavenger receptor class B type I; CLA-1): T175A (protein)
parent chain: MGCSAKARWAAGALGVAGLLCAVLGAVMIVMVPSLIKQQVLKNVRIDPSSLSFNMWKEIPIPFYLSVYFFDVMNPSEILKGEKPQVRERGPYVYREFRHKSNITFNNNDTVSFLEYRTFQFQPSKSHGSESDYIVMPNILVLGAAVMMENKPMTLKLIMTLAFTTLGERAFMNRTVGEIMWGYKDPLVNLINKYFPGMFPFKDKFGLFAELNNSDSGLFTVFTGVQNISRIHLVDKWNGLSKVDFWHSDQCNMINGTSGQMWPPFMTPESSLEFYSPEACRSMKLMYKESGVFEGIPTYRFVAPKTLFANGSIYPPNEGFCPCLESGIQNVSTCRFSAPLFLSHPHFLNADPVLAEAVTGLHPNQEAHSLFLDIHPVTGIPMNCSVKLQLSLYMKSVAGIGQTGKIEPVVLPLLWFAESGAMEGETLHTFYTQLVLMPKVMHYAQYVLLALGCVLLLVPVICQIRSQVGAGQRAARADSHSLACWGKGASDRTLWPTAAWSPPPAAVLRLCRSGSGHCWGLRSTLASFACRVATTLPVLEGLGPSLGGGTGS
In the case of B1, the oligomerisation is reported as “no change”.
